Test results as given in article PMC8922245, “The Structure of the Arabidopsis PEX4-PEX22 Peroxin Complex—Insights Into Ubiquitination at the Peroxisomal Membrane” (Frontiers in Cell and Developmental Biology, 2022).

B1: Arabidopsis thaliana PEX4 (full-length, His6-MBP removed) (enzyme)
chain: SMQASRARLFKEYKEVQREKVADPDIQLICDDTNIFKWTALIKGPSETPYEGGVFQLAFSVPEPYPLQPPQVRFLTKIFHPNVHFKTGEICLDILKNAWSPAWTLQSVCRAIIALMAHPEPDSPLNCDSGNLLRSGDVRGFNSMAQMYTRLAAMPKKGLEVLFQ
notes: one residue left after the TEV protease cleavage site (ENLYFQ|S); residue 0 at the N-terminus; PEX4 (UBC21), Arabidopsis thaliana, At5g25760, full-length without stop codon, residues 1-157; six C-terminal residues left from the PreScission cleavage site (LEVLFQ|GP); residues 158-163; Model in PDB 6XOD holds residues 1-154; residue 0, 155-157 and 158-163 were disordered; also called At PEX4; …
B2: His6-MBP-PEX4 (Arabidopsis thaliana PEX4, full-length, after PreScission cleavage of the fusion) (enzyme)
chain: MQASRARLFKEYKEVQREKVADPDIQLICDDTNIFKWTALIKGPSETPYEGGVFQLAFSVPEPYPLQPPQVRFLTKIFHPNVHFKTGEICLDILKNAWSPAWTLQSVCRAIIALMAHPEPDSPLNCDSGNLLRSGDVRGFNSMAQMYTRLAAMPKKGLEVLFQ
notes: PEX4 (UBC21), Arabidopsis thaliana, At5g25760, full-length without stop codon; C-terminal residues left from the PreScission cleavage site (LEVLFQ|GP); His6-MBP is joined to PEX4 by a linker with an uncut TEV site (ENLYFQ|S); source: purified (Ni-NTA), cleaved with PreScission protease only; not shown: His6, N-terminal, kept; MBP, N-terminal, kept
B3: His6-MBP-pex4^P123L (pex4-1 protein, after PreScission cleavage of the fusion) (enzyme, Arabidopsis thaliana)
chain: MQASRARLFKEYKEVQREKVADPDIQLICDDTNIFKWTALIKGPSETPYEGGVFQLAFSVPEPYPLQPPQVRFLTKIFHPNVHFKTGEICLDILKNAWSPAWTLQSVCRAIIALMAHPEPDSLLNCDSGNLLRSGDVRGFNSMAQMYTRLAAMPKKGLEVLFQ
notes: PEX4 (UBC21), Arabidopsis thaliana, At5g25760, full-length without stop codon, with the pex4-1 missense change P123L; C-terminal residues left from the PreScission cleavage site (LEVLFQ|GP); pex4-1 is a missense allele isolated in a forward-genetic screen; His6-MBP is joined by a linker with an uncut TEV site (ENLYFQ|S); source: purified (Ni-NTA), cleaved with PreScission protease only; not …

Tests used:
[1] = biological target: Pex22 (Saccharomyces cerevisiae) (UniProt P39718); conditions: cited from earlier work
[2] = biological target: T1, Arabidopsis thaliana PEX22 residues 111-283 (soluble PEX4-interacting domain) (Arabidopsis thaliana, UniProt Q9LSX7 111-283); experiment: crystal structure; PEX4-PEX22^111-283 complex from the cleaved fusion, 20 mg/mL in 20 mM Tris pH 7.5, 200 mM NaCl, 1 mM DTT; sitting drop vapor diffusion at 20°C; 100 mM NaCl, 100 mM Bis-Tris Propane pH 9.0, 25% (w/v) PEG 1,500; conditions: both partners purified
T1 construct: two N-terminal residues left from the PreScission cleavage site (LEVLFQ|GP); Made on one chain with His6-MBP-PEX4 and separated from it by PreScission cleavage; also called At PEX22; source: purified (Ni-NTA), released with PreScission protease
T1 sequence: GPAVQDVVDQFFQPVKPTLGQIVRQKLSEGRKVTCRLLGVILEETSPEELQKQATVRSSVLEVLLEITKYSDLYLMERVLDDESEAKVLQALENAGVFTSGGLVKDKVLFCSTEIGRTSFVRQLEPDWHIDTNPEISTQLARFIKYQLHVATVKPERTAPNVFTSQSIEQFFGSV

[3] = biological target: T1, Arabidopsis thaliana PEX22 residues …; experiment: pull-down; purified fusion cut with PreScission protease; His6-MBP-PEX4 or His6-MBP-pex4^P123L held on Ni-NTA resin, 1 h at 4°C; washed with buffer A (25 mM HEPES pH 8, 300 mM NaCl, 5% glycerol, 1 mM TCEP), eluted with buffer B (500 mM imidazole); SDS-PAGE and Coomassie staining; conditions: both partners purified

Sequence of Pex22 (Saccharomyces cerevisiae) (P39718 whole entry, the tested form may be a part): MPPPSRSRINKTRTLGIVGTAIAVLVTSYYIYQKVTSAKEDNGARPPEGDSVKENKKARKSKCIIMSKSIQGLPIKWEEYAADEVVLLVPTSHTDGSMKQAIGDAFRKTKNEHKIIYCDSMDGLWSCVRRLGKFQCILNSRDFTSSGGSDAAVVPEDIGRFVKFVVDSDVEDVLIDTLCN

Row | Molecule | binding result [3] | other results
1 | Pex4 (from UniProt P29340) |  | Kd [1]: 2 nM
2 | B1 |  | binding result [2]: binds
3 | B2 | binds | 
4 | B3 | binds | 
